The source of these data is paper PMC10992250, “Enzymatic synthesis of high-titer nicotinamide mononucleotide with a new nicotinamide riboside kinase and an efficient ATP regeneration system” (Bioresources and Bioprocessing, 2022).

The test system of series [1] is T1, Nc1ncnc2c1ncn2[C@@H]1O[C@H](COP(=O)(O)OP(=O)(O)OP(=O)(O)O)[C@@H](O)[C@H]1O.
T1 construct: codon-optimised gene in pET21a (NdeI/XhoI, no stop codon; C-terminal vector His tag), E. coli BL21(DE3), Ni column; about 27 kDa
Put plainly: purified protein. In kind it is biochemical, Kluyveromyces marxianus. To be noted: apparent, 0.5 mM NR, 12 mM MgCl2, 50 mM Tris-HCl pH 7.5, 50 mM NaCl, 50 mM KCl, 0.01% BSA, 30 °C.

The test system of series [2] is T2, NC(=O)c1ccc[n+]([C@@H]2O[C@H](CO)[C@@H](O)[C@H]2O)c1.
T2 construct: codon-optimised gene in pET21a (NdeI/XhoI, no stop codon; C-terminal vector His tag), E. coli BL21(DE3), Ni column; about 27 kDa
Put plainly: purified protein. In kind it is biochemical, Kluyveromyces marxianus. To be noted: apparent, 0.5 mM ATP, 12 mM MgCl2, 50 mM Tris-HCl pH 7.5, 50 mM NaCl, 50 mM KCl, 0.01% BSA, 30 °C.

The target in a further series is T3, Gbst-AcK (Geobacillus stearothermophilus, UniProt A0ACH1E729).
T3 construct: gene ackA; codon-optimised gene in pET21a (NdeI/XhoI, no stop codon; C-terminal vector His tag), E. coli BL21(DE3), Ni column
T3 sequence (A0ACH1E729 1-396): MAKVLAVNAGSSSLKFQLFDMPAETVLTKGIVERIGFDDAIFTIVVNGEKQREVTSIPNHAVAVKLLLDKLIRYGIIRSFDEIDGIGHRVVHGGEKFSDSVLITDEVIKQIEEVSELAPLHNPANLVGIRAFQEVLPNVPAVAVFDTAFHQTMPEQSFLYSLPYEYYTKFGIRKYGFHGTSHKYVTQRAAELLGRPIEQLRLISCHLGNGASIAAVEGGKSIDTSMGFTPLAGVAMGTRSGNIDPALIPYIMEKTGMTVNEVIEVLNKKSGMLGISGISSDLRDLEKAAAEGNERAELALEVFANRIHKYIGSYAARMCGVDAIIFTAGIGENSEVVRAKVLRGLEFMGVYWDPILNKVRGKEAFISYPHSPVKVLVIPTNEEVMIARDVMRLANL
The experiment in a line: HPLC of ATP formation. In kind it is biochemical. To be noted: […] ADP, […] AcP, […] MgCl2, […] KPB pH […] °C.

By Km is commonly meant the substrate concentration at which the rate is half of its maximum.

With “Klm-NRK (Kluyveromyces marxianus DMKU3-1042)”, the results for the Km in series [1] and in series [2] were 70 ± 6 µM and 45 ± 11 µM, respectively.

On to `Nc1ncnc2c1ncn2[C@@H]1O[C@H](COP(=O)(O)OP(=O)(O)O)[C@@H](O)[C@H]1O` [ADP], for which the “HPLC of ATP formation” value on Gbst-AcK is on record as “assayed as the generation of ATP from ADP with a sufficient amount of AcP”.

Regarding `CC(=O)OP(=O)(O)O` [AcP], the “HPLC of ATP formation” value at Gbst-AcK is “assayed as the generation of ATP from ADP with a sufficient amount of AcP”.
